Entries after “also recorded” stand apart in the source; their conditions may differ.
How the values were obtained:
full length human GSDMD = tested on: T1, full length human GSDMD
T1 sequence: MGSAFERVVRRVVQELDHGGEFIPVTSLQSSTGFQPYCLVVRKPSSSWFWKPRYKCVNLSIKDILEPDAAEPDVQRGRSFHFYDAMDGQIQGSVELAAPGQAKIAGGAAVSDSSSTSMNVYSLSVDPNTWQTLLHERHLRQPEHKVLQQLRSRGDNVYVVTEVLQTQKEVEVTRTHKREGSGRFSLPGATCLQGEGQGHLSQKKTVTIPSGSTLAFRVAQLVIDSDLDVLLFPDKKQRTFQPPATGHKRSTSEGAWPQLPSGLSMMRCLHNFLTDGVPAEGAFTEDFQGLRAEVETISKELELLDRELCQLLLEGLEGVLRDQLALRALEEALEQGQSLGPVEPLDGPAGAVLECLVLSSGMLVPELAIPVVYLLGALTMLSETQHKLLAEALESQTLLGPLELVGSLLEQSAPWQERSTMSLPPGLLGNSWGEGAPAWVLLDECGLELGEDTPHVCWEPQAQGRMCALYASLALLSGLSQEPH

Hela cells [1] = assay: Optogenetic activation of PhoDer, membrane-targeted jRCaMP1b calcium flare imaging and fluctuation analysis; format: cell-based
Experimental: Cloning. Cloning and subcloning were performed using the DH5a strain of E. coli. All mammalian constructs were cloned into the pcDNA3.0 vector with a modified multiple cloning site. Plasmids were generated as follows. Gasdermin D gene was obtained from Addgene. A diffusible optogenetic GSDMD, referred to herein as “PhoDer” and set forth in SEQ ID NO: 33, was constructed according to the reported domains structure by ligating three fragments into the pcDNA3.0 vector in one reaction via Gibson Assembly (New England BioLabs). For each fragment, PCR was specifically designed to create appropriate complementation. The jRCaMP1b gene, encoding a sensitive red protein calcium indicator, was obtained from Addgene. Membrane targeted calcium indicator jRCaMP1b was constructed by ligating a PCR fragment of the calcium indicator into the restriction enzyme sites BamHI and EcoRI in a modified pcDNA3.0 vector carrying a 5′ fragment encoding the N-terminal Lyn kinase localization sequence.
(§1) Cell Culture. HeLa and RAW264.7 cells were maintained in Dulbecco's Modified Eagle Medium (DMEM) medium supplemented with 10% fetal bovine serum (FBS) and 1% penicillin and streptomycin. Cells were transfected at 50%-70% confluency using LIPOFECTAMINE® 2000 transfection reagent and incubated for 24 hours before imaging. Cells were never serum-starved. To examine endogenous inflammatory activation, RAW264.7 cells were treated with 100 ng/μL lipopolysaccharide (LPS, Invivogen) at the beginning of each experiment. Pretreatment to bias membrane composition by phosphatidylinositol 4,5-bisphosphate (PIP2) modifying enzymes was performed by incubating Hela cells in Hanks' Balanced Salt Solution (HBSS) buffer with inhibitors at 37° C. for 10 minutes to prior imaging at the following concentrations: for phosphoinositide 3-kinase (PI3K), cells were treated 10 μM wortmannin (Tocris); and for phospholipase C (PLC), cells were treated with 10 μM U73122 (Tocris). Cells were removed from the incubator and allowed to come to thermal equilibrium before being imaged in HBSS buffer at room temperature.
Fluorescence Imaging, Optogenetic Activation, and Post-Processing. All epifluorescence imaging was performed on a customized Nikon Ti2-E microscope equipped with individual control over excitation (EX) and emission (EM) filters, a fast LED light source (Lumencor) with fluid-cooled EMCCD (Andor), motorized stage, and examined under a 40× or 100× oil immersion objective under live focus tracking. For RFP, excitation (EX) and emission (EM) filter combinations (maxima/bandwidth in nm) are indicated. Cells were imaged at 12-15 second intervals. Emission intensities of individual cells were background-subtracted before normalization to zero time point, when optogenetic activation began. In the optical setup, optogenetic activation of PhoDer was performed using an EX filter at 440/20 nm for 20-30 ms across whole fields of view. This replicated the progression of endogenous activation of GSDMD observed in LPS-stimulated RAW264.7 cells. […] Where applicable, inhibitors were treated at the indicated concentration for 15 minutes prior to imaging.
Fluctuation Analysis and Quantification. To automate the objective isolation and quantitation of calcium flares, a post-processing algorithm was developed based on principles and normalization scheme detailed in work on photochromic stochastic optical fluctuation imaging (pcSOFI) (Dedecker et al. (2012) Proc. Natl. Acad. Sci. USA 109: 10909-10914). Briefly, fluctuation caused by the flares generate high autocorrelation signals in time-averaged series and yield high contrast at locales of the greatest ion flux. To truly reflect the local flux change, it is then normalized to remove dependence on the number of biosensors reporting at the given location using a scheme detailed previously (Mo et al. (2017) Nat. Methods 14 (4): 427-434). […]

[2] = tested on: RAW264.7 and mouse bone marrow-derived macrophages (BMDM); assay: Optogenetic activation of PhoDer in transiently transfected macrophages, calcium response; format: cell-based; details: transiently transfected RAW264.7 and mouse BMDM
Experimental: as §1
Fluorescence Imaging, Optogenetic Activation, and Post-Processing. […]

Hela cells [3] = assay: Modulating molecular transport of a cell by light activation of PhoDer (GFP efflux, phalloidin influx, antibody delivery); format: cell-based
Experimental: Using the PhoDer protein, it was determined whether a large molecule, i.e., an impermeable dye, fluorescent protein or an IgG antibody, could be transported into or out of a living cell via light-inducible activation of the PhoDer construct.
GFP Efflux. Cells expressing GFP were transfected with the PhoDer protein and illuminated intermittently for 1 hour. Over time the gasdermin pore grew larger and GFP fluorescence was captured on a fluorescence microscope using a 40× objective.
Phalloidin Influx. Phalloidin is a cell impermeable dye used in the labeling of F-actin. Cells were transfected with the PhoDer protein and contacted with phalloidin in the cell medium. The cells were subsequently illuminated and permeation of the phalloidin was monitored. […] As such, control gasdermin pore formation was capable of mediating cargo delivery in the absence of cell death.
Antibody Delivery. Hela cells expressing PhoDer were placed in medium containing a fluorescently tagged anti-tubulin monoclonal IgG antibody (˜150 kDa, ˜14 nm in size). Before exposure to light, antibody fluorescence was evident in the medium. […] Super-resolution imaging of the cells was carried out using STORM (Stochastic Optical Reconstruction Microscopy). […] Advantageously, the cells remained intact and alive thereby allowing for analysis of cytoskeletal tubulin and nuclear tubulin. […] Given that cytoskeletal and nuclear tubulin have distinct functions apart from their structural roles in forming microtubules, delivery of the anti-tubulin antibody via the present invention allows for further subcellular analysis of tubulin in living cells.

Hela cells [4] = assay: Reversible optogenetics, cyclic activation; format: cell-based
Experimental: Reversible Optogenetics. HeLa cells expressing a modified gasdermin protein of the invention (SEQ ID NO: 40) were subjected to cyclic activation. Whereas gasdermin lacking a photoactivatable linker has no ability to reverse and will kill the cell typically in 30 minutes or less, activation of reversible optogenetic gasdermin allow cells to stay alive for 2 hours or longer. Furthermore, upon closer examination, the cyclic activation pattern can clearly be detected in the response of these cells via autocorrelation function (FIG. 13). The “imprinting” of this cyclic pattern into the cellular response can only be possible if the optogenetic gasdermin protein is reversible.

Molecule: caspase-1
- micro-current recordings in a POPE/POPC planar lipid bilayer (full length human GSDMD): upon the addition of activated GSDMD (mixture with caspase-1 to cleave the C-terminal autoinhibition domain), minute current fluctuations were detected

B1: PhoDer: optogenetically activatable human GSDMD with photocleavable linker between N- and C-terminal domains, SEQ ID NO: 33 (protein)
chain: MGSAFERVVRRVVQELDHGGEFIPVTSLQSSTGFQPYCLVVRKPSSSWFWKPRYKCVNLSIKDILEPDAAEPDVQRGRSFHFYDAMDGQIQGSVELAAPGQAKIAGGAAVSDSSSTSMNVYSLSVDPNTWQTLLHERHLRQPEHKVLQQLRSRGDNVYVVTEVLQTQKEVEVTRTHKREGSGRFSLPGATCLQGEGQGHLSQKKTVTIPSGSTLAFRVAQLVIDSDLDVLLFPDKKQRTFQPPATGHKRSTSEGAWPQLPSGLSMMRCLHNGGGSVIPDYFKQSFPEGYSWERSMTYEDGGICIATNDITMEGDSFINKIHFKGTNFPPNGPVMQKRTVGWEASTEKMYERDGVLKGDVKMKLLLKGGGHYRCDYRTTYKVKQKPVKLPDYHFVDHRIEILSHDKDYNKVKLYEHAVARNSTDSMDELYKGGSGGMVSKGEETITSVIKPDMKNKLRMEGNVNGHAFVIEGEGSGKPFEGIQTIDLEVKEGAPLPFAYDILTTAFHYGNRVFTKYPRGGGVPAEGAFTEDFQGLRAEVETISKELELLDRELCQLLLEGLEGVLRDQLALRALEEALEQGQSLGPVEPLDGPAGAVLECLVLSSGMLVPELAIPVVYLLGALTMLSETQHKLLAEALESQTLLGPLELVGSLLEQSAPWQERSTMSLPPGLLGNSWGEGAPAWVLLDECGLELGEDTPHVCWEPQAQGRMCALYASLALLSGLSQEPH
modifications: photocleavable linker
- average circularity (minor/major radii ratio) of the flares (Hela cells [1]): 0.75
- pores that persisted after the mean open time and reopened (Hela cells [1]): ~57%
- calcium response upon optogenetic activation (Hela cells [1]; Hela cells expressing PhoDer, membrane-targeted jRCaMP1b): caused spontaneous calcium flares at sporadic locations on the plasma membrane
- time in which calcium flares maximized (Hela cells [1]; average, n=21 pores): 0.35 min
- cooperative coefficient of pore closing (Hela cells [1]; mean of n=21, R^2=0.996): 0.73
- average time pores were open (Hela cells [1]; n=21 pores): 1.55 min
- mean diameter reached by calcium flares (Hela cells [1]; n=21 pores): ~10 μm
- calcium response upon optogenetic activation [2]: initiated clearly localized transient calcium flares
- time cells observed intact and adherent after antibody delivery (Hela cells [3]): at least 24 hours
- delivery of fluorescently tagged anti-tubulin monoclonal IgG antibody (Hela cells [3]; Hela cells, about 5 minute blue-light activation): the fluorescent antibody was delivered into the interior of the cell
- cell lysis after phalloidin delivery (calcium imaging) (Hela cells [3]; blue-light activation): did not lyse
- phalloidin influx, F-actin labeling (Hela cells [3]; blue-light activation, phalloidin in cell medium): allowed phalloidin to permeate and bind F-actin; also recorded: delivers actin labels into living cells
- GFP efflux (Hela cells [3]; cells expressing GFP, illuminated intermittently for 1 hour): GFP left the cell

B2: SEQ ID NO: 40: reversible optogenetic gasdermin variant, modified gasdermin protein of the invention (protein)
chain: MGSAFERVVRRVVQELDHGGEFIPVTSLQSSTGFQPYCLVVRKPSSSWFWKPRYKCVNLSIKDILEPDAAEPDVQRGRSFHFYDAMDGQIQGSVELAAPGQAKIAGGAAVSDSSSTSMNVYSLSVDPNTWQTLLHERHLRQPEHKVLQQLRSRGDNVYVVTEVLQTQKEVEVTRTHKREGSGRFSLPGATCLQGEGQGHLSQKKTVTIPSGSTLAFRVAQLVIDSDLDVLLFPDKKQRTFQPPATGHKRSTSEGAWPQLPSGLSMMRCLHNGGGGMLATTLERIEKNFVITDPRLPDNPIIFASDSFLQLTEYSREEILGRNCRFLQGPETDRATVRKIRDAIDNQTEVTVQLINYTKSGKKFWNVFHLQPMRDYKGDVQYFIGVQLDGTERLHGAAEREAVCLIKKTAFQIAEAANDENYFGGGGVPAEGAFTEDFQGLRAEVETISKELELLDRELCQLLLEGLEGVLRDQLALRALEEALEQGQSLGPVEPLDGPAGAVLECLVLSSGMLVPELAIPVVYLLGALTMLSETQHKLLAEALESQTLLGPLELVGSLLEQSAPWQERSTMSLPPGLLGNSWGEGAPAWVLLDECGLELGEDTPHVCWEPQAQGRMCALYASLALLSGLSQEPH
- time cells stay alive under activation (Hela cells [4]; HeLa cells, cyclic activation): ≥ 2 h
- reversibility (autocorrelation function of cyclic activation) (Hela cells [4]; activations every 20 cycles): achieved
